Results on one molecule are retold here after paper PMC3483115 (The Journal of General Physiology, 2012).

This assay has as its target calmodulin (CaM), wild type (UniProt P0DP23 1-149). The experiment in a line: SEC. A general note: SEC sorts molecules by how far they enter the pores of the column.

For the molecule EGVKRTLSFSLRSGRVSGRNWKNFALVPLLRDAST [TRPV1-CT35 (TRPV1 C-terminal residues 767–801)], the binding result is “binds”.
